# According to article doi:10.1101/2022.03.14.484276:
# Target: BsaXI S subunit (specificity subunit), WT TRD1-CR1-TRD2-CR2 (Bacillus stearothermophilus 25B (Geobacillus sp. 25B))
# Assay: co-purification through chromatography columns
substance,measurement,value
BsaXI RM subunit (restriction-modification fusion subunit) (enzyme),stoichiometry N,2 RM per S
